In publication PMC5421356 (Molecular genetics and metabolism, 2017):

Molecular target: the molecule itself
Assay: SEC

B1: human tryptophan 2,3-dioxygenase (40-390), Met108Ile variant (enzyme, UniProt P48775 40-390, looked up)
chain: LIYGNYLHLEKVLNAQELQSETKGNKIHDEHLFIITHQAYELWFKQILWELDSVREIFQNGHVRDERNILKVVSRMHRVSVILKLLVQQFSILETMTALDFNDFREYLSPASGFQSLQFRLLENKIGVLQNMRVPYNRRHYRDNFKGEENELLLKSEQEKTLLELVEAWLERTPGLEPHGFNFWGKLEKNITRGLEEEFIRIQAKEESEEKEEQVAEFQKQKEVLLSLFDEKRHEHLLSKGERRLSYRALQGALMIYFYREEPRFQVPFQLLTSLMDIDSLMTKWRYNHVCMVHRMLGSKAGTGGSSGYHYLRSTVSDRYKVFVDLFNLSTYLIPRHWIPKMNPTIHKFLY
stoichiometry N: 4
